Reference: US20220259593A1, “CONTROL OF MAMMALIAN GENE DOSAGE USING CRISPR” (The Regents of the University of California, priority 2019, published 2022)

B1: cr526 (nucleic acid)
guide: GTTTAAGAGCTAAGCTGGAAACAGCATAGCAAGTTTAAATAATGCTAGTCAGTTATCAACTTGAAAAAGTGGCGCCGAGTCGGCGCT
modifications: listed as DNA, chemistry not fully specified
B2: cr988 (nucleic acid)
guide: GTTTAAGAGCTAAGCTGGAAACAGCATAGCAACTTTAAATAAGGCTAGTCCGTTATCAAGTTGAAAAACTGGCACCGAGTCGGTGCT
modifications: listed as DNA, chemistry not fully specified
B3: cr010 (nucleic acid)
guide: GTTAAAGAGCTAAGCTGGAAACAGCATAGCAAGTTTAAATAAGGCTAGTCCGTTATCAACTTGAAAAAGTGGCACCGAGTCGGTGCT
modifications: listed as DNA, chemistry not fully specified
B4: cr716 (nucleic acid)
guide: GTTTAAGAGCTAAGCTGGAAACAGCATAGCCATTTTAAATAAGGCTAGTCCGTTATCAACTTGAAAAAGTGGCACCGAGTCGGTGCT
modifications: listed as DNA, chemistry not fully specified
B5: cr627 (nucleic acid)
guide: GTTTAAGAGCTAAGCTGGAAACAGCATAGCAAGTTTAAATAATGCTAGTCAGTTATCAACTTGAGAAAGTGGCACCGAGTCGGTGCT
modifications: listed as DNA, chemistry not fully specified
B6: cr638 (nucleic acid)
guide: GTTTAAGAGCTAAGCTGGAAACAGCATAGCAAGCTTAAATAAGGGTACTCCGTTATCAACTTGAAAAAGTGGCACCGAGTCGGTGCT
modifications: listed as DNA, chemistry not fully specified
B7: cr593 (nucleic acid)
guide: GTTTAAGAGCTAAGCTGGAAACAGCATAGCAAGTTTAAATAAGGCTAGTCCGTTATCACCTTGAAAAAGGGGCACCGAGTCGGTGCT
modifications: listed as DNA, chemistry not fully specified
B8: cr574 (nucleic acid)
guide: GTTTAAGAGCTAAGCTGGAAACAGCATAGCAAGTTTCAATAAGGCTAGTCCGTTATCAACTTGAAAAAGTGGCACCGAGTCGGTGCT
modifications: listed as DNA, chemistry not fully specified
B9: cr301 (nucleic acid)
guide: GTTTAAGAGCTAAGCTGGAAACAGCATAGCAACTTTAAATAAGGCTAGTCCGTTATCAACTTGAAAAAGTGGCACCGATTCGGTGCT
modifications: listed as DNA, chemistry not fully specified
B10: cr378 (nucleic acid)
guide: GTTTAAGAGCTAAGCTGGAAACAGCATAGCAAGTTTAAATGAGGCTAGTCCGTTATCAACTTGAAAAAGTGGCACCGAGTCGGTGCT
modifications: listed as DNA, chemistry not fully specified
B11: cr357 (nucleic acid)
guide: GTTTAAGAGCTAAGCTGGAAACAGCATAGCAAGGTTAAATAAGGCTAGTCCGTTATCAACTTGAAAAAGTGGCTCCGAGTCGGAGCT
modifications: listed as DNA, chemistry not fully specified
B12: cr757 (nucleic acid)
guide: GTTTAAGAGCTAAGCTGGAAACAGCATAGCAACTTTAAATAAGGCTAGTCCGTTATCAACTAGAAATAGTGGCACCGAGTCGGTGCT
modifications: listed as DNA, chemistry not fully specified
B13: cr616 (nucleic acid)
guide: GTTTAAGAGCTAAGCTGGAAACAGCATAGCAAGTTTAAATAAGGCTAGTCCGTTATCAAGATGAAAATCTGGCACCGAGTCGGTGCT
modifications: listed as DNA, chemistry not fully specified
B14: cr570 (nucleic acid)
guide: GTTTAAGAGCTAAGCTGGAAACAGCATAGCAACTTTAAATAAGGCTAGTCCGTTATCAACTTGAAAAAGTGGCTCCGAGTCGGAGCT
modifications: listed as DNA, chemistry not fully specified
B15: cr007 (nucleic acid)
guide: GTATAAGAGCTAAGCTGGAAACAGCATAGCAAGTTTAAATAAGGCTAGTCCGTTATCAACTTGAAAAAGTGGCACCGAGTCGGTGCT
modifications: listed as DNA, chemistry not fully specified
B16: cr095 (nucleic acid)
guide: GTATAAGTGCTAAGCTGGAAACAGCATAGCAAGTTTAAATAAGGCTAGTCCGTTATCAACTTGAAAAAGTGGCACCGAGTCGGTGCT
modifications: listed as DNA, chemistry not fully specified
B17: cr314 (nucleic acid)
guide: GTTTAAGAGCTAAGCTGGAAACAGCATAGCAAGGTTAAATAAGGCTAGTCCGTTATCAACTTGAAAAAGTGGAACCGAGTCGGTTCT
modifications: listed as DNA, chemistry not fully specified
B18: cr738 (nucleic acid)
guide: GTTTAAGAGCTAAGCTGGAAACAGCATAGCATGTTTAAATTAGGCTAGTCCGTTATCAACTTGAAAAAGTGGCACCGAGTCGGTGCT
modifications: listed as DNA, chemistry not fully specified
B19: cr571 (nucleic acid)
guide: GTTTAAGAGCTAAGCTGGAAACAGCATAGCAAGGTTAAATAAGGCTAGTCCGTTATCAACTCGAAAGAGTGGCACCGAGTCGGTGCT
modifications: listed as DNA, chemistry not fully specified
B20: cr313 (nucleic acid)
guide: GTTTAAGAGCTAAGCTGGAAACAGCATAGCAAGTTTAAATAAGGCTAGTCCGTTATCAACTTGAAAAAGTGGGTGGGAGTCGCTCCT
modifications: listed as DNA, chemistry not fully specified
B21: cr151 (nucleic acid)
guide: GTTTAAGAGCTAAGCTGGAAACAGCATAGCAACTTTAAATAAGGCTAGTCCGGTATCAACTTGAAAAAGTGGCACCGAGTCGGTGCT
modifications: listed as DNA, chemistry not fully specified
B22: cr096 (nucleic acid)
guide: GTTTGTGAGCTAAGCTGGAAACAGCATAGCAAGTTTAAATAAGGCTAGTCCGTTATCAACTTGAAAAAGTGGCACCGAGTCGGTGCT
modifications: listed as DNA, chemistry not fully specified
B23: cr933 (nucleic acid)
guide: GTTTAAGAGCTAAGCTGGAAACAGCATAGCAAGGTTAAATAAGGCTAGTCCGTTATCAACTTGAAAAAGTGTCACCGAGTCGGTGAT
modifications: listed as DNA, chemistry not fully specified
B24: cr048 (nucleic acid)
guide: TTTCAAGAGCTAAGCTGGAAACAGCATAGCAAGTTTAAATAAGGCTAGTCCGTTATCAACTTGAAAAAGTGGCACCGAGTCGGTGCT
modifications: listed as DNA, chemistry not fully specified
B25: cr830 (nucleic acid)
guide: GTTTAAGAGCTAAGCTGGAAACAGCATAGCAAGTTTAAATAAGGCTAGGCCGTTATCAACTTGAAAAAGTGTCACCGAGTCGGTGCT
modifications: listed as DNA, chemistry not fully specified
B26: cr241 (nucleic acid)
guide: GTTTAAGAGCTAAGCTGGAAACAGCATAGCAACTTTAAATAAGGCTAGTCCGTTATCAACATGAAAATGTGGCACCGAGTCGGTGCT
modifications: listed as DNA, chemistry not fully specified
B27: cr880 (nucleic acid)
guide: GTTTAAGAGCTAAGCTGGAAACAGCATAGCAAGGTTAAATAAGGCTAGTCCGTTATCAACTTGAAAAAGTGGCATCGAGTCGATGCT
modifications: listed as DNA, chemistry not fully specified
B28: cr312 (nucleic acid)
guide: GTTTAAGAGCTAAGCTGGAAACAGCATAGCAAGGTTAAATAAGGCTAGTCCGTTATCAACGTGAAAACGTGGCACCGAGTCGGTGCT
modifications: listed as DNA, chemistry not fully specified
B29: cr641 (nucleic acid)
guide: GTTTAAGAGCTAAGCTGGAAACAGCATAGCAAGGTTAAATAAGGCTAGTCCGTTATCAACTTGAAAAAGTGGCACCGAGTCGGTGCT
modifications: listed as DNA, chemistry not fully specified
B30: cr009 (nucleic acid)
guide: GTGTAAGAGCTAAGCTGGAAACAGCATAGCAAGTTTAAATAAGGCTAGTCCGTTATCAACTTGAAAAAGTGGCACCGAGTCGGTGCT
modifications: listed as DNA, chemistry not fully specified
B31: cr012 (nucleic acid)
guide: GTTGAAGAGCTAAGCTGGAAACAGCATAGCAAGTTTAAATAAGGCTAGTCCGTTATCAACTTGAAAAAGTGGCACCGAGTCGGTGCT
modifications: listed as DNA, chemistry not fully specified

Tested on: K562 CRISPRi cells
Assay: Constant region variant library pooled growth screen, K562
Type: cell-based, human
Details: sgRNA constant region variants; activity relative to the original, un-modified constant region cr995
Summary of the method: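 Pooled library transduced into K562 CRISPRi cells in duplicate, puromycin-selected, grown at >2000× coverage and sampled after 4 to 8 days. Phenotypes per targeting sequence:constant region pair were normalized to the unmodified-scaffold pairing to give relative activity.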

Molecule	Mean relative activity
B1	0.03359
B2	0.0305
B3	0.02976
B4	0.03033
B5	0.02763
B6	0.03012
B7	1.035
B8	0.03217
B9	0.03132
B10	0.02893
B11	0.03253
B12	0.02851
B13	1.035
B14	0.02846
B15	0.03285
B16	0.02974

Molecule	Mean relative activity
B17	0.03303
B18	0.03306
B19	0.03194
B20	0.03202
B21	0.03186
B22	0.02764
B23	0.0286
B24	0.02761
B25	0.02925
B26	0.03304
B27	0.03183
B28	0.03032
B29	0.02687
B30	0.02783
B31	0.02769
